Assay results as given in US12702701B2, “Compositions and methods for treating granulomatosis with polyangiitis” (Canem Holdings, LLC, priority 2015, dated 2026).

T1: proteinase-3 (Homo sapiens, UniProt P24158)
T1 sequence (P24158 28-248): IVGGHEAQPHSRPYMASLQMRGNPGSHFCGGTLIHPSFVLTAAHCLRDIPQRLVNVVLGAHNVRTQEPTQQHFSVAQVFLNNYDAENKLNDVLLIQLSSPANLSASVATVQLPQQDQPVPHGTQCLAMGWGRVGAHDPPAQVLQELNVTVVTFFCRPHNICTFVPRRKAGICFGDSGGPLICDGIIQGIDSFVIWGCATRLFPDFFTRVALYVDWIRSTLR


Legend:
proteinase-3 [1] = target: T1, proteinase-3; conditions: Nobar et al, FEBS 272 (2005); cited from earlier work
[2] = system: HUVEC (human umbilical vein endothelial cells); test: HUVEC cytotoxicity assay: calcein release after attack by TNF-primed, α-PR3 mAb-activated neutrophils; type: cell-based; conditions: for % Release / Mean (fluorescence): 0.25 mg/mL, α-PR3 mAbs +, 4 hours at 37° C.; for response in fluorescence release: all doses tested
Description: A cell culture provides a model of the blood vessels by using HUVEC (human umbilical vein endothelial cells) cultured to 80-90% confluence as a representation of the blood vessel wall. The following is a model of GPA in cell culture using HUVEC and human blood neutrophils that are primed and activated by c-ANCA in the same manner as the disease. HUVEC are sensitized to inflammatory damage by pre-exposure to BCNU and ionomycin. In the disease state of Granulomatosis with Polyangiitis (GPAANegener's), activated neutrophils attack the blood vessel walls. This study evaluated two compounds, A1PI (α-1-antitrypsin; Sigma Aldrich Cat. No. A9024, lot SLBL9794V, 90% purity) and elafin (AnaSpec Cat. No. AS-61641, lot 1360190, 95% purity), and their ability to mitigate the induced damage to HUVEC as a model of the vascular endothelium compared to the negative control al-antichymotrypsin (Athens Research & Technology, Cat. No. 16-16-012400, lot AX2014-02, >95% purity). al-Antichymotrypsin was chosen as a negative control due to its structural similarity to A1PI and lack of activity against the PR3 receptor. α-1-Antichymotrypsin inhibits neutrophil cathepsin G and mast cell chymase.
Confluent HUVEC was labeled with calcein-AM as a fluorescent marker. Calcein-AM is a cell-permeant dye that can be used to determine cell viability in HUVEC (and most eukaryotic cells). In live cells the non-fluorescent calcein AM is converted to a green-fluorescent calcein upon uptake after acetoxymethyl ester hydrolysis by intracellular esterases. Calcein-AM dye requires very small quantities of cells while maintaining the same sensitivity as the traditional ^51Cr assay. Once taken up by the cell, free calcein is generally membrane impermeable and only permeates through gap junctions. Although there is some leakage over the incubation period, this is accounted for through the use of a control of HUVEC alone, labelled with Calcein-AM and used to determine the baseline fluorescence level accounting for normal cellular processes.
Peripheral blood neutrophils were primed to enhance expression of the PR-3 receptor (proteinase 3) with 50 U/mL TNF. A high proportion of membrane PR3 positive neutrophils is a risk factor for the development of vasculitis, and elevated membrane PR3 levels are associated with a higher relapse rate in patients with Wegener granulomatosis. Activated neutrophils were then added (5×10^5 neutrophils/well) to plated calcein labeled HUVEC to produce an inflammatory response. Four dose concentrations of A1PI (0.25, 0.5, 1.0 and 2.0 mg/mL) and one dose of elafin (0.25 mg/mL) were evaluated for prevention of the activation of neutrophils and lysis of the cells. One dose concentration of the negative control al antichymotrypsin (0.25 mg/mL) was evaluated.
Three a-PR-3 MoAbs [monoclonal antibodies (15 μg/mL of α-PR3 WGM2 and 5 μg/ml each of a-PR3 4A5 and α-PR 6A6, for a total of 25 μg/mL)] were added to activate the neutrophils to attack the HUVEC, causing lysis of the HUVEC. α-PR3 4A5 and α-PR3 6A6 clones were obtained from Eurodiagnostica and the α-PR3 WGM2 from Abcam. These 3 clones were selected to provide a model of the polyclonal response that would be seen in vivo and represent three binding sites on the PR-3 receptor (Van Der Geld, Characterization of monoclonal antibodies to PR3 as candidate tools for epitope mapping or human anti-PR3 autoantibodies, 1999). After addition of the activated neutrophils, test compounds and α-PR3 mAbs, cells were incubated for 4 hours at 37° C. Following incubation the supernatant was evaluated for fluorescence. When neutrophils attack the HUVEC and cell lysis occurs, the fluorescent calcein label is released from damaged membranes and measured in the supernatants.
A1PI provided a response that was dose dependent and directional in nature. The mean fluorescence was determined from […] aliquots of supernatant from each well, with 6 wells for each condition (18 replicates total). […]

proteinase-3 [3] = target: T1, proteinase-3; conditions: cited from earlier work

Molecule | Ki values (proteinase-3 [1]) | % Release [2] | Mean (fluorescence) [2] | response in fluorescence release [2] | equilibrium dissociation constant (Ki) for proteinase-3/elafin association (proteinase-3 [3]) | K of Proteinase-3/Trappin-2 associations (proteinase-3 [3])
Elafin: mature product of Trappin-2, C-terminal 57 amino acids (61-117 of SEQ ID NO: 9); AnaSpec Cat. No. AS-61641 (AQEPVKGPVSTKPGSCPIILIRCAMLNPPNRCLKDTDCPGIKKCCEGSCGMACFVPQ; listed as Homo sapiens) | sub-nanomolar range | 6.2% | 5455.7 | showed a functional response | 20 nM | –
Trappin-2: precursor of elafin, 117 amino acids, SEQ ID NO: 9 | sub-nanomolar range | – | – | – | – | 12 nm
Negative K: negative control α1-antichymotrypsin (Athens Research & Technology), structurally similar to A1PI, lacks activity against the PR3 receptor (protein) HPNSPLDEENLTQENQDRGTHVDLGLASANVDFAFSLYKQLVLKAPDKNVIFSPLSISTALAFLSLGAHNTTLTEILKGLKFNLTETSEAEIHQSFQHLLRTLNQSSDELQLSMGNAMFVKEQLSLLDRFTEDAKRLYGSEAFATDFQDSAAAKKLINDYVKNGTRGKITDLIKDLDSQTMMVLVNYIFFKAKWEMPFDPQDTHQSRFYLSKKKWVMVPMMSLHHLTIPYFRDEELSCTVVELKYTGNASALFILPDQDKMEEVEAMLLPETLKRWRDSLEFREIGELYLPKFSISRDYNLNDILLQLGIEEAFTSKADLSGITGARNLAVSQVVHKAVLDVFEEGTEASAATAVKITLLSALVETRTIVRFNRPFLMIIVPTDTQNIFFMSKVTNPKQA | – | 21.9% | 4417.7 | failing to provide a meaningful change | – | –
